Test results reported in patent US20260207798A1, “CYCLIC PEPTIDES AS PET IMAGING AGENTS OF GRANZYME B” (priority 2022, published 2026).
Bridge positions count the residues as written; N and C are the ends. Square brackets hold non-standard residues; d marks the D form. * marks the point of attachment. Peg4 = polyethylene glycol with 4 units (PEG4); NEtAla = CCN[C@@H](C)C(=O)O; Propionyl = CCC(=O)*

Target: T1, human Granzyme B (human, UniProt P10144 21-247)
T1 construct: Captured on a Series S Streptavidin chip for SPR; also called hGranzyme B; GzmB
T1 sequence (P10144 21-247 limits assumed): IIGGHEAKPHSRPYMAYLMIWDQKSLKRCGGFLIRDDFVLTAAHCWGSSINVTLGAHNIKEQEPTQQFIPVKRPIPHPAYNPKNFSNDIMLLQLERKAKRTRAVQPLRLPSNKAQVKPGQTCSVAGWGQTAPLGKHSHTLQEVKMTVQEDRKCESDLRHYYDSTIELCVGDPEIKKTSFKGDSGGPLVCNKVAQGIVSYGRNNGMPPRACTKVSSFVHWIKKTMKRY
Assay: SPR, Biacore 8k+, hGranzyme B captured on SA chip, single cycle kinetics, 1:1 model
Procedure: The kinetics of test peptide binding to human Granzyme B (hGranzyme B) was determined by SPR. All experiments were performed at 25° C. using the Biacore 8k+ instrument (Cytiva, Marlborough, MA). The Biacore 8k+ Insight Evaluation Software Version 3.0 was used to fit the data with a 1:1 binding model to determine the association rate constant kₐ (M⁻¹s⁻¹, where “M” ~equals molar and “s” ~equals seconds) and the dissociation rate constant kd (s⁻¹). These rate constants were used to calculate the equilibrium dissociation constant. KD (M)=kd/kₐ.
To measure the binding kinetics of peptides of interest, surfaces were prepared by a capture method to a Series S Streptavidin (SA) chip using a 1×HBS-EP+ running buffer (Cytiva). hGranzyme B was diluted to 10 μg/mL in IX HBS-EP+ and flowed over spot 2 of each flow cell on the chip at a flow rate of 10 ul/min for 20 s to achieve a level of capture of ~1100 RU. An unmodified spot 1 of each flow cell was used as a matrix binding control or reference surface. Binding kinetics were measured using single cycle kinetics at 25° C. by injecting 5 concentrations with 3-fold serial dilutions of test peptides from 0.01 μM to 1 μM. Compound dilutions were performed manually in a running buffer containing 1×HBS-EP+(Cytiva), and a final concentration of 2% DMSO. The interaction analyses over hGranzyme B, were performed using a 120 s association time and a 900 s dissociation time. All experiments were conducted at a flow rate of 50 μL/min with a data collection rate of 10 Hz.
Peptide dilution series included 2 zero concentration points (no compound) which were averaged and subtracted from the peptide concentration injection as DMSO control responses. Binding data acquired from the reference surface (matrix binding control) were subtracted from the binding data for hGranzyme B surface on the chip to determine specific binding. Next, the association phase data were solvent corrected to account for any signal fluctuation throughout the experiment due to subtle DMSO concentration differences. Corrected response data were analyzed using the Biacore 8k+ Evaluation Software Version 3.0 according to the manufacturer. SPR data for representative compounds of the disclosure are found in Table 8.

In the case of {CH2CO}-FNFEDQSADTWQPCGGK(RESCA‑1)-NH2 (thioether N-14) [Compound 3a], the Kd is reported as 15.1 nM.

With {CH2CO}-FNFEDQSADTWQPCGGK(AF647)-NH2 (thioether N-14) [Compound 9a] the Kd was 13 nM.

In the case of {CH2CO}-FNFEDQSADTWQPCGGK(Peg4)-NH2 (thioether N-14) [Compound 16a], the Kd is reported as 19 nM.

{CH2CO}-FNFEDQSADTWQPCGGK(Propionyl)-NH2 (thioether N-14) [Compound 4a] showed a Kd of 11.7 nM.

B1: Compound 70a (peptide)
peptide: {CH2CO}-LNFEDQSPDTWQPCG-NH2
modifications: thioether N-14
SMILES: CC(C)C[C@@H]1NC(=O)CSC[C@@H](C(=O)NCC(N)=O)NC(=O)[C@@H]2CCCN2C(=O)[C@H](CCC(N)=O)NC(=O)[C@H](Cc2c[nH]c3ccccc23)NC(=O)[C@H]([C@@H](C)O)NC(=O)[C@H](CC(=O)O)NC(=O)[C@@H]2CCCN2C(=O)[C@H](CO)NC(=O)[C@H](CCC(N)=O)NC(=O)[C@H](CC(=O)O)NC(=O)[C@H](CCC(=O)O)NC(=O)[C@H](Cc2ccccc2)NC(=O)[C@H](CC(N)=O)NC1=O
With B1 the Kd was 18.5 nM.

B2: Compound 82a (peptide)
peptide: {CH2CO}-FNFEDQSATTWQPCG-NH2
modifications: thioether N-14
SMILES: C[C@@H]1NC(=O)[C@H](CO)NC(=O)[C@H](CCC(N)=O)NC(=O)[C@H](CC(=O)O)NC(=O)[C@H](CCC(=O)O)NC(=O)[C@H](Cc2ccccc2)NC(=O)[C@H](CC(N)=O)NC(=O)[C@H](Cc2ccccc2)NC(=O)CSC[C@@H](C(=O)NCC(N)=O)NC(=O)[C@@H]2CCCN2C(=O)[C@H](CCC(N)=O)NC(=O)[C@H](Cc2c[nH]c3ccccc23)NC(=O)[C@H]([C@@H](C)O)NC(=O)[C@H]([C@@H](C)O)NC1=O
For B2, the Kd was 45.8 nM.

B3: Compound 73a (peptide)
peptide: {CH2CO}-FNFEDQSAETWQPCG-NH2
modifications: thioether N-14
SMILES: C[C@@H]1NC(=O)[C@H](CO)NC(=O)[C@H](CCC(N)=O)NC(=O)[C@H](CC(=O)O)NC(=O)[C@H](CCC(=O)O)NC(=O)[C@H](Cc2ccccc2)NC(=O)[C@H](CC(N)=O)NC(=O)[C@H](Cc2ccccc2)NC(=O)CSC[C@@H](C(=O)NCC(N)=O)NC(=O)[C@@H]2CCCN2C(=O)[C@H](CCC(N)=O)NC(=O)[C@H](Cc2c[nH]c3ccccc23)NC(=O)[C@H]([C@@H](C)O)NC(=O)[C@H](CCC(=O)O)NC1=O
B3 was tested, and the Kd was 21.3 nM.

B4: Compound 72a (peptide)
peptide: {CH2CO}-FNFEDQS[NEtAla]DTWQPCG-NH2
modifications: thioether N-14
SMILES: CCN1C(=O)[C@H](CO)NC(=O)[C@H](CCC(N)=O)NC(=O)[C@H](CC(=O)O)NC(=O)[C@H](CCC(=O)O)NC(=O)[C@H](Cc2ccccc2)NC(=O)[C@H](CC(N)=O)NC(=O)[C@H](Cc2ccccc2)NC(=O)CSC[C@@H](C(=O)NCC(N)=O)NC(=O)[C@@H]2CCCN2C(=O)[C@H](CCC(N)=O)NC(=O)[C@H](Cc2c[nH]c3ccccc23)NC(=O)[C@H]([C@@H](C)O)NC(=O)[C@H](CC(=O)O)NC(=O)[C@@H]1C
Binder B4 has a Kd of 20.2 nM.

B5: Compound 85a (peptide)
peptide: {CH2CO}-FNFEDQSAITWQPCG-NH2
modifications: thioether N-14
SMILES: CC[C@H](C)[C@@H]1NC(=O)[C@H](C)NC(=O)[C@H](CO)NC(=O)[C@H](CCC(N)=O)NC(=O)[C@H](CC(=O)O)NC(=O)[C@H](CCC(=O)O)NC(=O)[C@H](Cc2ccccc2)NC(=O)[C@H](CC(N)=O)NC(=O)[C@H](Cc2ccccc2)NC(=O)CSC[C@@H](C(=O)NCC(N)=O)NC(=O)[C@@H]2CCCN2C(=O)[C@H](CCC(N)=O)NC(=O)[C@H](Cc2c[nH]c3ccccc23)NC(=O)[C@H]([C@@H](C)O)NC1=O
B5 was tested, and the Kd was 58.3 nM.

B6: Compound 78a (peptide)
peptide: {CH2CO}-FNFEDQSAFTWQPCG-NH2
modifications: thioether N-14
SMILES: C[C@@H]1NC(=O)[C@H](CO)NC(=O)[C@H](CCC(N)=O)NC(=O)[C@H](CC(=O)O)NC(=O)[C@H](CCC(=O)O)NC(=O)[C@H](Cc2ccccc2)NC(=O)[C@H](CC(N)=O)NC(=O)[C@H](Cc2ccccc2)NC(=O)CSC[C@@H](C(=O)NCC(N)=O)NC(=O)[C@@H]2CCCN2C(=O)[C@H](CCC(N)=O)NC(=O)[C@H](Cc2c[nH]c3ccccc23)NC(=O)[C@H]([C@@H](C)O)NC(=O)[C@H](Cc2ccccc2)NC1=O
B6 gave a Kd of 34.4 nM.

B7: Compound 80a (peptide)
peptide: {CH2CO}-FNFEDQSALTWQPCG-NH2
modifications: thioether N-14
SMILES: CC(C)C[C@@H]1NC(=O)[C@H](C)NC(=O)[C@H](CO)NC(=O)[C@H](CCC(N)=O)NC(=O)[C@H](CC(=O)O)NC(=O)[C@H](CCC(=O)O)NC(=O)[C@H](Cc2ccccc2)NC(=O)[C@H](CC(N)=O)NC(=O)[C@H](Cc2ccccc2)NC(=O)CSC[C@@H](C(=O)NCC(N)=O)NC(=O)[C@@H]2CCCN2C(=O)[C@H](CCC(N)=O)NC(=O)[C@H](Cc2c[nH]c3ccccc23)NC(=O)[C@H]([C@@H](C)O)NC1=O
B7 was tested, and the Kd was 38.8 nM.

B8: Compound 77a (peptide)
peptide: {CH2CO}-FNFEDQSAATWQPCG-NH2
modifications: thioether N-14
SMILES: C[C@@H]1NC(=O)[C@H](C)NC(=O)[C@H](CO)NC(=O)[C@H](CCC(N)=O)NC(=O)[C@H](CC(=O)O)NC(=O)[C@H](CCC(=O)O)NC(=O)[C@H](Cc2ccccc2)NC(=O)[C@H](CC(N)=O)NC(=O)[C@H](Cc2ccccc2)NC(=O)CSC[C@@H](C(=O)NCC(N)=O)NC(=O)[C@@H]2CCCN2C(=O)[C@H](CCC(N)=O)NC(=O)[C@H](Cc2c[nH]c3ccccc23)NC(=O)[C@H]([C@@H](C)O)NC1=O
Binder B8 has a Kd of 29.2 nM.

B9: Compound 81a (peptide)
peptide: {CH2CO}-FNFEDQSANTWQPCG-NH2
modifications: thioether N-14
SMILES: C[C@@H]1NC(=O)[C@H](CO)NC(=O)[C@H](CCC(N)=O)NC(=O)[C@H](CC(=O)O)NC(=O)[C@H](CCC(=O)O)NC(=O)[C@H](Cc2ccccc2)NC(=O)[C@H](CC(N)=O)NC(=O)[C@H](Cc2ccccc2)NC(=O)CSC[C@@H](C(=O)NCC(N)=O)NC(=O)[C@@H]2CCCN2C(=O)[C@H](CCC(N)=O)NC(=O)[C@H](Cc2c[nH]c3ccccc23)NC(=O)[C@H]([C@@H](C)O)NC(=O)[C@H](CC(N)=O)NC1=O
B9 showed a Kd of 43.4 nM.

B10: Compound 79a (peptide)
peptide: {CH2CO}-FNFEDQSASTWQPCG-NH2
modifications: thioether N-14
SMILES: C[C@@H]1NC(=O)[C@H](CO)NC(=O)[C@H](CCC(N)=O)NC(=O)[C@H](CC(=O)O)NC(=O)[C@H](CCC(=O)O)NC(=O)[C@H](Cc2ccccc2)NC(=O)[C@H](CC(N)=O)NC(=O)[C@H](Cc2ccccc2)NC(=O)CSC[C@@H](C(=O)NCC(N)=O)NC(=O)[C@@H]2CCCN2C(=O)[C@H](CCC(N)=O)NC(=O)[C@H](Cc2c[nH]c3ccccc23)NC(=O)[C@H]([C@@H](C)O)NC(=O)[C@H](CO)NC1=O
With B10 the Kd was 34.8 nM.

B11: Compound 74a (peptide)
peptide: {CH2CO}-FNFEDQSAQTWQPCG-NH2
modifications: thioether N-14
SMILES: C[C@@H]1NC(=O)[C@H](CO)NC(=O)[C@H](CCC(N)=O)NC(=O)[C@H](CC(=O)O)NC(=O)[C@H](CCC(=O)O)NC(=O)[C@H](Cc2ccccc2)NC(=O)[C@H](CC(N)=O)NC(=O)[C@H](Cc2ccccc2)NC(=O)CSC[C@@H](C(=O)NCC(N)=O)NC(=O)[C@@H]2CCCN2C(=O)[C@H](CCC(N)=O)NC(=O)[C@H](Cc2c[nH]c3ccccc23)NC(=O)[C@H]([C@@H](C)O)NC(=O)[C@H](CCC(N)=O)NC1=O
B11 showed a Kd of 23.9 nM.

B12: Compound 84a (peptide)
peptide: {CH2CO}-FNFEDQSAVTWQPCG-NH2
modifications: thioether N-14
SMILES: CC(C)[C@@H]1NC(=O)[C@H](C)NC(=O)[C@H](CO)NC(=O)[C@H](CCC(N)=O)NC(=O)[C@H](CC(=O)O)NC(=O)[C@H](CCC(=O)O)NC(=O)[C@H](Cc2ccccc2)NC(=O)[C@H](CC(N)=O)NC(=O)[C@H](Cc2ccccc2)NC(=O)CSC[C@@H](C(=O)NCC(N)=O)NC(=O)[C@@H]2CCCN2C(=O)[C@H](CCC(N)=O)NC(=O)[C@H](Cc2c[nH]c3ccccc23)NC(=O)[C@H]([C@@H](C)O)NC1=O
For B12, the Kd was 52.2 nM.
